Bridge positions count the residues as written; N and C are the ends. Ends that are not written are not given here.

In one experiment the target is T1, IL-7Rγc subunit (Homo sapiens, UniProt P31785).
T1 sequence (P31785 23-369): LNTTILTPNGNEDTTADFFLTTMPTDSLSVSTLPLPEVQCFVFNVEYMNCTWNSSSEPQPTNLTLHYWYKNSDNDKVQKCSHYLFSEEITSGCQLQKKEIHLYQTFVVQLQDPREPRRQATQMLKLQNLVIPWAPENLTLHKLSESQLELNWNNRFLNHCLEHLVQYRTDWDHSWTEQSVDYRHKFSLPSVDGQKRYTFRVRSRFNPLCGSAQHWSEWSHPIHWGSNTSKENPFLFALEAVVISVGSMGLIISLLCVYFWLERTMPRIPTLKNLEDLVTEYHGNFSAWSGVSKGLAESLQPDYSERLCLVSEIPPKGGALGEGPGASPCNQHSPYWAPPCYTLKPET
The experiment can be described thus: Competitive binding assays, specific binding site on the IL-7Rγc subunit. As to conditions: against Rγc ligands SEQ ID NO: 461-465. The source says: The specific binding site of the IL-7Rγc subunit for these Rγc ligands can be characterized using competitive binding assays.

A further experiment deals with T2, IL-7Rα subunit (Homo sapiens, UniProt P16871).
T2 sequence (P16871 21-459): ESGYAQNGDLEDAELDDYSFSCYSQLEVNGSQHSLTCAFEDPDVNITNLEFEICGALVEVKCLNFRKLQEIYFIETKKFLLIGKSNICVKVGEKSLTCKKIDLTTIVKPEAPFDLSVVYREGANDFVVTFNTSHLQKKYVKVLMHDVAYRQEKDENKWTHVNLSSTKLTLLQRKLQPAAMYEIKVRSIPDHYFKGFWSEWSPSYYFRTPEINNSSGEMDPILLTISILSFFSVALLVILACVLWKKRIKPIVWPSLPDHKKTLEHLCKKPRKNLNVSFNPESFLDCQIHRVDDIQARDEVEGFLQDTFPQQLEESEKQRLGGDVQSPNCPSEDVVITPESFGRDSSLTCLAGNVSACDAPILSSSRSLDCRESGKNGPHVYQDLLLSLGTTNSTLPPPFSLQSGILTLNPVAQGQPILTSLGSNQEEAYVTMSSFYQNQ
The experiment can be described thus: Competitive binding assays, unique binding site on the IL-7Rα subunit. As to conditions: against IL-7Rα ligands SEQ ID NO: 455-459. The source says: The unique binding site of the IL-7Rα subunit for these IL-7Rα ligands can be characterized using competitive binding assays as described, for example, in Example 12.

The target in experiment [1] is T3, hu-IL-7Rα subunit (human), P16871.
T3 chain: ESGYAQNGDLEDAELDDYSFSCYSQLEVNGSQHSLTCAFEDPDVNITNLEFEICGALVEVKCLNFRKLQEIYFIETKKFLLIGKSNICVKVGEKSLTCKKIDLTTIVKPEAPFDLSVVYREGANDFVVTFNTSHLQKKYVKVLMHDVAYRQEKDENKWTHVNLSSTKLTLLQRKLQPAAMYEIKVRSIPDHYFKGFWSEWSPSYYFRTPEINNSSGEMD
The experiment can be described thus: not stated; binding to a unique binding site on the IL-7Rα subunit.

The target in a further experiment is T4, hu-IL-7Rα subunit (human, UniProt P16871 21-239, limits assumed).
T4 construct: also called human interleukin-7 receptor subunit α; CD127
T4 sequence (looked up): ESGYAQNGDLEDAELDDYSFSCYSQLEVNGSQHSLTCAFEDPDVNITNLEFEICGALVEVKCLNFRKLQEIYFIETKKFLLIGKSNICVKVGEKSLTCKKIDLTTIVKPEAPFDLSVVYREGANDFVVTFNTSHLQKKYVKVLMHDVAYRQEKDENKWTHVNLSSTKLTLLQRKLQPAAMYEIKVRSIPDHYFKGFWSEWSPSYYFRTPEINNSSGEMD
Described as above.

Another experiment has as its target T5, hu-IL-7Rγc subunit (human, UniProt P31785 23-262, limits assumed).
T5 construct: also called human Rγc subunit; common γc receptor
T5 sequence (looked up): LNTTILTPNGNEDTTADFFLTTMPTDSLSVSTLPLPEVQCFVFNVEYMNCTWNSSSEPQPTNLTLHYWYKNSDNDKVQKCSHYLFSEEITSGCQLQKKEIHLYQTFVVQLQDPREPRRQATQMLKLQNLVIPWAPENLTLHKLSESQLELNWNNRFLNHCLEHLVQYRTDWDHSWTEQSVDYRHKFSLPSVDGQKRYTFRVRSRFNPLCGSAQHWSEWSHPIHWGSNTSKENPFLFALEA
The experiment can be described thus: phage ELISA competition assay. For orientation: In an ELISA, binding on a coated surface is turned into a signal by an enzyme label.

Experiment [2] has as its target T6, hu-IL-7Rγc subunit (human), P31785.
T6 chain: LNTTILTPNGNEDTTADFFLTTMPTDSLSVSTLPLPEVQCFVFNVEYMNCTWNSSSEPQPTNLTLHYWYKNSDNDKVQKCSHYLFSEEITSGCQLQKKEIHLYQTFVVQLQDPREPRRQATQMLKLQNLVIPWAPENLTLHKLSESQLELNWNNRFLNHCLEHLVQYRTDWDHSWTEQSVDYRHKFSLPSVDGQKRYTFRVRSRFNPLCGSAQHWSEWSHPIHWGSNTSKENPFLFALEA
The experiment can be described thus: not stated; binding to the specific binding site on the IL-7Rγc subunit.

As to “SEQ ID NO: 460: An IL-7Rα ligand having the amino acid sequence of SEQ ID NO: 460; sequence not printed in the text (YDCRIAQVGELCDL)”, the “competition for binding to the specific binding site on the IL-7Rγc subunit with the group of Rγc ligands” value with IL-7Rγc subunit is “does not compete”. With “V V C Q D W E G V E L C W Q (VVCQDWEGVELCWQ) [SEQ ID NO: 261]”, the “competition for binding to the unique binding site on the IL-7Rα subunit with the group of IL-7Rα ligands” value in the experiment with IL-7Rα subunit is listed as “does not compete”.

Take YMACSSGLSLCRLS (modifications not checked) [SEQ ID NO 457]: in experiment [1], the IC50 (as a rule, the concentration that inhibits the measured activity by half) was less than 10 µM. For GGVPWCTLDPGSLQCAWF (not fully specified (bridges); cysteine pairing not given here, also called IL-7Rα ligand) [SEQ ID NO 459], in the experiment with hu-IL-7Rα subunit, the IC50 was less than 10 µM. With GGVVCQDWEGVELCWQGG (disulfide 5-14 (inferred), also called Rγc ligand) [SEQ ID NO 327], in the experiment with hu-IL-7Rγc subunit, the IC50 is less than 100 µM. VYCAEIGEYRVCRQ (modifications not checked) [SEQ ID NO 456]: the IC50 in experiment [1] was less than 10 µM. In experiment [2], KVCEMWGGVLLCWN (modifications not checked) [SEQ ID NO 461] registered an IC50 of less than 10 µM.

Source of the values: patent US20240100159A1, “USE OF IL-7R-ALPHA-GAMMA AGONIST PEPTIDES IN CELL MANUFACTURING” (MEDIKINE, INC., priority 2022, published 2024).
